Measurements: the supplement of paper PMC9112550, “Optimization of the antimicrobial peptide Bac7 by deep mutational scanning” (BMC Biology, 2022)

System: Escherichia coli TOP10
Test: shrunken log2 fold change of peptide-encoding DNA abundance (4.5 h post-induction vs induction); higher = less antimicrobial activity (less host growth inhibition)
Conditions: time post-induction: 4.5 h; library: site-saturation at positions 5, 18, 19, 20
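Further: peptides expressed intracellularly from a pBAD plasmid library in pooled LB shake-flask culture, induced with 0.3% L-arabinose, DNA abundance read by NGS, three biological replicates, DESeq2 with apeglm shrinkage.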

Sequence | shrunken log2 fold change
RRIRLRPPRLPRPRPRPRIFPRP | -0.263
RRIRGRPPRLPRPRPRPQGIPRP | -0.128
RRIRGRPPRLPRPRPRPMFWPRP | 0.336
RRIRRRPPRLPRPRPRPEIVPRP | 0.246
RRIRCRPPRLPRPRPRPFQKPRP | 0.0129
RRIRMRPPRLPRPRPRPYNCPRP | -0.0909
RRIRPRPPRLPRPRPRPYIEPRP | -0.322
RRIRLRPPRLPRPRPRPLMHPRP | 0.0668
RRIRLRPPRLPRPRPRPPKPPRP | 0.555
RRIRSRPPRLPRPRPRPGLCPRP | 0.238
RRIRFRPPRLPRPRPRPAVPPRP | 0.0613
RRIRDRPPRLPRPRPRPLQIPRP | -0.21
RRIRERPPRLPRPRPRPCSCPRP | -0.00783
RRIRKRPPRLPRPRPRPLMTPRP | 0.175
RRIRGRPPRLPRPRPRPKWFPRP | 0.0384
RRIRGRPPRLPRPRPRPAACPRP | 1.15
RRIRARPPRLPRPRPRPEAYPRP | 0.114
RRIRTRPPRLPRPRPRPAIPPRP | -0.212
RRIRWRPPRLPRPRPRPKSDPRP | 0.473
RRIRLRPPRLPRPRPRPHWQPRP | 0.0281
RRIRFRPPRLPRPRPRPKDDPRP | -0.052
RRIRSRPPRLPRPRPRPMELPRP | -0.187
RRIRTRPPRLPRPRPRPEPFPRP | 0.0259
RRIRIRPPRLPRPRPRPMIDPRP | -1.15
RRIRQRPPRLPRPRPRPWVRPRP | -0.112

Sequence | shrunken log2 fold change
RRIRLRPPRLPRPRPRPLHCPRP | 0.118
RRIRMRPPRLPRPRPRPAHYPRP | -0.248
RRIRVRPPRLPRPRPRPLEEPRP | 0.0793
RRIRHRPPRLPRPRPRPCHEPRP | -0.0201
RRIRRRPPRLPRPRPRPPIDPRP | 0.144
RRIRCRPPRLPRPRPRPRWNPRP | 2.15
RRIRWRPPRLPRPRPRPTVEPRP | 0.0565
RRIRTRPPRLPRPRPRPFPPPRP | -0.0137
RRIRQRPPRLPRPRPRPNVYPRP | -0.222
RRIRLRPPRLPRPRPRPRQSPRP | -0.0892
RRIRCRPPRLPRPRPRPDRLPRP | -0.335
RRIRRRPPRLPRPRPRPVNCPRP | 0.148
RRIRWRPPRLPRPRPRPSINPRP | -0.0638
RRIRDRPPRLPRPRPRPVAEPRP | 1.16
RRIRIRPPRLPRPRPRPYLDPRP | -1.02
RRIRARPPRLPRPRPRPFFTPRP | 0.617
RRIRSRPPRLPRPRPRPNCGPRP | -0.146
RRIRSRPPRLPRPRPRPIHIPRP | -0.157
RRIRMRPPRLPRPRPRPDWFPRP | 0.235
RRIRQRPPRLPRPRPRPWWSPRP | 0.0234
RRIRHRPPRLPRPRPRPQKKPRP | -0.421
RRIRTRPPRLPRPRPRPFDCPRP | -0.748
RRIRARPPRLPRPRPRPNYFPRP | -0.251
RRIRSRPPRLPRPRPRPMWWPRP | 0.551
RRIRMRPPRLPRPRPRPRFFPRP | 0.286
